Consider seven sequences from the Immune Epitope Database (IEDB).

One experiment addresses HLA-B*58:01. In words: IEDB peptide-MHC binding, purified MHC/direct/fluorescence; filed as Kd, often an IC50 or EC50 that approximates it; ≥ and ≤ were set here for values at or beyond the usual limits of such assays.
A further experiment deals with HLA-A*01:01. The description is as above.
In experiment [1] the target is HLA-A*29:02. The description is as above.
For experiment [2], the target named is HLA-A*69:01. The experiment is described as above.
Experiment [3] deals with HLA-A*31:01. The experiment is described as above.
A further experiment addresses HLA-B*48:01. Described as above.
In another experiment the target is HLA-B*08:01. Described as above.
Experiment [4] deals with HLA-B*57:01. The experiment is described as above.
Experiment [5] addresses HLA-B*18:01. Described as above. To be noted: source organism: Mammarenavirus juninense.
Experiment [6] addresses HLA-B*46:01. The description is as above.
The target in another experiment is HLA-B*27:05. The experiment is described as above.
For experiment [7], the target named is HLA-A*03:01. The description is as above.
The target of another experiment is HLA-B*44:02. The experiment is described as above.
In the next experiment the target is HLA-A*11:01. The experiment is described as above.
For experiment [8], the target named is HLA-B*15:01. In words: IEDB peptide-MHC binding, purified MHC/competitive/fluorescence; filed as Kd, often an IC50 or EC50 that approximates it; ≥ and ≤ were set here for values at or beyond the usual limits of such assays.
Experiment [9] concerns the target HLA-B*51:01. Described as above.
The target of the next experiment is HLA-B*27:03. The experiment is described as above.
For experiment [10], the target named is HLA-A*26:01. The experiment is described as above.
In experiment [11] the target is HLA-A*02:01. Described as above.
The target of experiment [12] is HLA-A*29:02. The experiment is described as above.
Experiment [13] concerns the target HLA-B*57:01. The experiment is described as above.
Experiment [14] addresses HLA-B*18:01. Described as above.
For experiment [15], the target named is HLA-A*02:19. The experiment is described as above. To be noted: source organism: Mycobacterium tuberculosis variant bovis BCG str. Pasteur 1173P2.
In experiment [16] the target is HLA-B*46:01. Described as above.
The target of experiment [17] is HLA-A*03:01. Described as above. To be noted: source organism: Mycobacterium tuberculosis variant bovis BCG str. Pasteur 1173P2.
In experiment [18] the target is HLA-B*15:01. Kind of experiment: IEDB peptide-MHC binding, purified MHC/direct/fluorescence; filed as Kd, often an IC50 or EC50 that approximates it; ≥ and ≤ were set here for values at or beyond the usual limits of such assays.
In experiment [19] the target is HLA-B*51:01. The description is as above. As to conditions: source organism: Yersinia enterocolitica subsp. enterocolitica 8081.
For experiment [20], the target named is HLA-A*26:01. The experiment is described as above. As to conditions: source organism: Yersinia pestis.
Experiment [21] concerns the target HLA-A*02:01. The experiment is described as above.
In the next experiment the target is HLA-A*02:12. The description is as above.
Experiment [22] has as its target HLA-A*02:19. The experiment is described as above.
For the next experiment, the target named is HLA-B*40:01. The description is as above. To be noted: source organism: Yersinia pestis.
The next experiment deals with HLA-B*07:02. The description is as above.
The target of a further experiment is HLA-A*24:03. The experiment is described as above. As to conditions: source organism: Zaire ebolavirus.
Another experiment deals with HLA-A*23:01. Described as above. To be noted: source organism: Zaire ebolavirus.
For experiment [23], the target named is HLA-A*69:01. In words: IEDB peptide-MHC binding, purified MHC/competitive/fluorescence; filed as Kd, often an IC50 or EC50 that approximates it; ≥ and ≤ were set here for values at or beyond the usual limits of such assays. As to conditions: source organism: Zaire ebolavirus.
The target in experiment [24] is HLA-A*31:01. Described as above. As to conditions: source organism: Zaire ebolavirus.
Another experiment deals with HLA-B*15:17. The experiment is described as above. To be noted: source organism: Zaire ebolavirus.
Another experiment has as its target HLA-B*39:01. The description is as above. As to conditions: source organism: Zaire ebolavirus.
[25] abbreviates: source organism: Mammarenavirus juninense.
The mark [26] stands for this setting: source organism: Mycobacterium tuberculosis variant bovis BCG str. Pasteur 1173P2.
Where [27] appears, read: source organism: Yersinia pestis Nepal516.
The mark [28] stands for this setting: source organism: Yersinia enterocolitica subsp. enterocolitica 8081.
[29] abbreviates: source organism: Yersinia pestis.
[30] abbreviates: source organism: Zaire ebolavirus.
Where [31] appears, read: source organism: Mammarenavirus lassaense.

QLAKRSEIL: the Kd with HLA-B*58:01 (setting [25]), in the experiment with HLA-A*01:01 (setting [25]), with HLA-A*29:02 [1] (setting [25]), with HLA-A*69:01 [2] (setting [25]), with HLA-A*31:01 [3] (setting [25]) and in the experiment with HLA-B*48:01 (setting [25]) was not below 20 µM throughout. Further, the dissociation constant (Kd) (in general, the constant that tells how readily two partners part at equilibrium) was 1.3 µM with HLA-B*08:01 (setting [25]); not below 20 µM with HLA-B*57:01 [4] (setting [25]); not below 20 µM with HLA-B*18:01 [5]; not below 20 µM in the experiment with HLA-B*46:01 [6] (setting [25]); not below 20 µM in the experiment with HLA-B*27:05 (setting [25]); not below 20 µM with HLA-A*03:01 [7] (setting [25]). Besides, the dissociation constant Kd in the experiment with HLA-B*44:02 (setting [25]) and in the experiment with HLA-A*11:01 (setting [25]) was not below 20 µM each time.

HLTRVGPYL: the Kd was not below 20 µM with HLA-B*15:01 [8] (setting [26]); not below 20 µM with HLA-B*51:01 [9] (setting [26]); not below 20 µM with HLA-B*27:03 (setting [26]); not below 20 µM with HLA-A*26:01 [10] (setting [26]); 0.0024 µM with HLA-A*02:01 [11] (setting [26]); not below 20 µM in the experiment with HLA-A*29:02 [12] (setting [26]). The Kd with HLA-B*57:01 [13] (setting [26]) was not below 20 µM; with HLA-B*18:01 [14] (setting [26]), not below 20 µM; with HLA-A*02:19 [15] it was 1.03 µM; with HLA-B*46:01 [16] (setting [26]), not below 20 µM; with HLA-A*03:01 [17], not below 20 µM.

ETIFTVLAL: the dissociation constant (Kd) with HLA-B*58:01 (setting [27]) is not below 20 µM; with HLA-A*01:01 (setting [27]), not below 20 µM; with HLA-B*15:01 [18] (setting [27]) it was not below 20 µM; with HLA-B*51:01 [19], not below 20 µM; in the experiment with HLA-A*26:01 [20], 0.00767 µM; with HLA-A*02:01 [21] (setting [27]) it was not below 20 µM. Further, the Kd with HLA-A*29:02 [1] (setting [28]) is 0.182 µM; in the experiment with HLA-A*02:12 (setting [28]), not below 20 µM; with HLA-A*69:01 [2] (setting [29]), 0.0035 µM; with HLA-A*31:01 [3] (setting [27]), not below 20 µM; with HLA-B*08:01 (setting [27]), not below 20 µM; with HLA-B*57:01 [4] (setting [28]), not below 20 µM. Besides, the Kd with HLA-A*02:19 [22] (setting [28]) is not below 20 µM; with HLA-B*40:01, 2.41 µM; in the experiment with HLA-B*27:05 (setting [27]), not below 20 µM; with HLA-B*07:02 (setting [29]), 4.5 µM; with HLA-A*03:01 [7] (setting [27]) it was not below 20 µM; with HLA-B*44:02 (setting [27]), not below 20 µM. Also, the Kd with HLA-A*11:01 (setting [27]) is not below 20 µM.

Consider TSACGIFLK, for which the Kd with HLA-A*24:03 is not below 20 µM; in the experiment with HLA-A*29:02 [1] (setting [30]), not below 20 µM; with HLA-A*02:12 (setting [30]), not below 20 µM; in the experiment with HLA-A*23:01, not below 20 µM; with HLA-A*02:19 [22] (setting [30]), not below 20 µM; in the experiment with HLA-A*03:01 [7] (source organism: Sudan ebolavirus - Maleo (1979)), 1.1 µM. Also, the Kd with HLA-B*15:01 [8] (setting [30]), with HLA-B*51:01 [9] (setting [30]), with HLA-B*27:03 (setting [30]), with HLA-A*26:01 [10] (setting [30]), in the experiment with HLA-A*02:01 [11] (setting [30]) and with HLA-A*69:01 [23] was not below 20 µM in each case. Also, the equilibrium dissociation constant (Kd) in the experiment with HLA-A*31:01 [24], in the experiment with HLA-B*57:01 [13] (setting [30]), in the experiment with HLA-B*18:01 [14] (setting [30]), with HLA-B*46:01 [16] (setting [30]), in the experiment with HLA-B*15:17 and in the experiment with HLA-B*39:01 was not below 20 µM each time.

Sequence LLYYWVHLF gave a dissociation constant Kd with HLA-A*29:02 [12] (source organism: Bacillus thuringiensis str. Al Hakam) of 0.022 µM.

In the experiment with HLA-A*29:02 [12] (source organism: Vibrio cholerae 2740-80), FESTITGEY gave an equilibrium dissociation constant (Kd) of 0.0075 µM.

As for DIKLIDIAL, the Kd with HLA-B*58:01 (setting [31]), with HLA-A*01:01 (setting [31]), in the experiment with HLA-B*15:01 [18] (setting [31]), with HLA-A*02:01 [21] (setting [31]), with HLA-A*29:02 [1] (setting [31]) and with HLA-A*31:01 [3] (setting [31]) was not below 20 µM throughout. Moreover, the dissociation constant Kd was not below 20 µM in the experiment with HLA-B*48:01 (setting [31]); 0.894 µM with HLA-B*08:01 (setting [31]); not below 20 µM in the experiment with HLA-B*57:01 [4] (setting [31]); not below 20 µM with HLA-B*46:01 [6] (setting [31]); not below 20 µM with HLA-B*27:05 (setting [31]); not below 20 µM in the experiment with HLA-B*07:02 (setting [31]). The Kd with HLA-A*03:01 [7] (setting [31]), with HLA-B*44:02 (setting [31]) and with HLA-A*11:01 (setting [31]) was not below 20 µM throughout.
